# Test results taken from US20030159166A1 (ORTHO MCNEIL PHARMACEUTICAL, published 2003).
# B1: DO-Fc fusion protein (extracellular domains of DOA and DOB fused to the Fc domain of human IgG1) (Fc fusion)
# MHC II alpha: TKADHMGSYGPAFYQSYGASGQFTHEFDEEQLFSVDLKKSEAVWRLPEFGDFARFDPQGGLAGIAAIKAHLDILVERSNRSRAINVPPRVTVLPKSRVELGQPNILICIVDNIFPPVINITWLRNGQTVTEGVAQTSFYSQPDHLFRKFHYLPFVPSAEDVYDCQVEHWGLDAPLLRHWELQVPIPPPDAME
# MHC II beta: TDSPEDFVIQAKADCYFTNGTEKVQFVVRFIFNLEEYVRFDSDVGMFVALTKLGQPDAEQWNSRLDLLERSRQAVDGVCRHNYRLGAPFTVGRKVQPEVTVYPERTPLLHQHNLLHCSVTGFYPGDIKIKWFLNGQEERAGVMSTGPIRNGDWTFQTVVMLEMTPELGHVYTCLVDHSSLLSPVSVEWRAQSEYSWRK
# notes: extracellular domain; Expressed in Drosophila Schneider-2 cells, purified on protein A sepharose; also called HLA-DO; not shown: human IgG1 Fc domain
# Molecular target: T1, recombinant soluble HLA-DM (human, UniProt P28067 27-233; P28068 19-218)
# T1 construct: extracellular domain; Expressed in Drosophila Schneider-2 cells, purified on Ni-NTA agarose and by gel filtration
# Assay: in vitro complex formation, isolation on Ni-NTA agarose by the His tag of DM
binder,measurement,value
B1,binding result,binds
